The values that follow come from the supplement of paper PMC12042874.

± gives the uncertainty stated by the source.

This data set is described as follows: amyloid nucleation score (Sup35N fusion, yeast selection) (log enrichment); library NNK2; higher = more nucleation; inactive = no reads after selection. Put shortly: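 Yeast lacking psi expressed peptides of 20 random codons fused to Sup35N, received 100 μM copper sulfate for 24 hours, and were then grown for 7 days at 30°C on medium lacking adenine and uracil. Illumina sequencing of input and output plasmid inserts provided the reads. Nucleation scores are DiMSum log enrichments of output over input, centred on the mode of non-aggregating sequences. Any sequence with under 100 input reads was excluded.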
Turning to RIFITIRIINPPKDFFIRCY, the amyloid nucleation score entry is “inactive”.
The substance VVDSTVGRADGTCGGVVGFA gave an amyloid nucleation score of 0.87 ± 0.41.
Take THMSEDGFVL: the amyloid nucleation score amounted to 0.072 ± 0.34.
As for PRLCDECPSCVDLSGVWNPY, the amyloid nucleation score result was “inactive”.
As for TNVINRCLSPCFGRSLFNIV, the amyloid nucleation score is -0.805 ± 1.1.
For GFNLKVVVITTFDAFYYHAT, the amyloid nucleation score entry is “inactive”.
With MNYTT the figure was -0.242 ± 0.54; with FILDAVGNFFCFVRHTTPQV, 0.106 ± 1; with RSKMNRLMVLRSRVRWWYNE, 0.485 ± 0.32.
Substance LFDGRNYF returned an amyloid nucleation score of -0.669 ± 0.46.
VSTSYVTTIVF registered an amyloid nucleation score of -0.237 ± 0.41.
The substance AQTSWNILFAKS had an amyloid nucleation score of -0.501 ± 0.64.
On to RSRAQQHSQHNTVDITPTRS, for which the amyloid nucleation score is 0.194 ± 0.32.
With QYNKCSMALVFCYCS the figure was 8.26 ± 0.038; with KKEVHLSRVYITETYVVGEG, -0.052 ± 0.63.
Take YVCVYTDF: the amyloid nucleation score is -1.38 ± 0.55.
RAFRKAGMYSYLSG yielded an amyloid nucleation score of 3 ± 0.056.
As for ILLYNCCCEGWACKSWLGSH, the amyloid nucleation score entry was “inactive”.
IGCLVYHIITRVFVFVSPLF: the amyloid nucleation score result was “inactive”.
Regarding MCGKRGLRGWLKSDDVIIWV, the amyloid nucleation score came to 5.19 ± 0.074.
For CLYRTLWSCLWSGMMIFCTD, the amyloid nucleation score is -1.77 ± 1.
IETCKKAHRSKYTLFGLLLY showed an amyloid nucleation score of -0.383 ± 0.63.
In the case of FCDALQISSYTSENYGIVWS, the amyloid nucleation score was -0.685 ± 0.36.
With LSHPVIGGETKFPDDRNSQF, the amyloid nucleation score turned out to be 0.119 ± 0.19.
CGHVTMHRWGMKNIMLVYAV: the amyloid nucleation score was -0.889 ± 1.
Consider NKAHINW, for which the amyloid nucleation score amounted to 0.476 ± 0.6.
For the substance GVLQTARRFPVPEGN, the amyloid nucleation score was determined as 3.71 ± 0.12.
With RPRVVTQLFMYLNDCRGSPP the figure was 6.693 ± 0.055; with YANERNTDFNNRWFLHGIKR, -1.34 ± 1.1.
FSCWGFMVFRMVGDMLSMKD: the amyloid nucleation score is -1.58 ± 0.49.
For the substance GCFSCHIWFTVRFYWTLYVP, the amyloid nucleation score result was “inactive”.
On to STTQEF, for which the amyloid nucleation score is 0.086 ± 0.32.
With RYSATLYPTVPPDPLSAWAL, the amyloid nucleation score was found to be 3.8 ± 0.057.
On to TAKLFDISTCKCPD, for which the amyloid nucleation score was -0.105 ± 0.79.
Substance VYNLARSRSKAERVV displayed an amyloid nucleation score of 0.201 ± 1.
Turning to DWQYRLKSVLVFRWQ, the amyloid nucleation score was found to be 3.5 ± 0.15.
VHIMNSLVGSIVLGSSRRLS registered an amyloid nucleation score of 5.77 ± 0.062.
SQKNCCKVEGRLMASRVKPR registered an amyloid nucleation score of 0.155 ± 1.1.
TDFCSHKTWLSAVGISV yielded an amyloid nucleation score of 0.037 ± 0.23.
On to FNTYVVNFSRRGDIVMAKR, for which the amyloid nucleation score came to 6.59 ± 0.085.
Turning to IKGTQSVRDTVSLVVIKDVW, the amyloid nucleation score is 0.627 ± 0.4.
For the substance YYSMGSTCGILDQDSLNVDQ, the amyloid nucleation score was -1.34 ± 0.39.
Turning to HYSRI, the amyloid nucleation score was found to be 0.647 ± 0.58.
Substance YWEDNWAPNIQDLWQRRRCG registered an amyloid nucleation score of 0.743 ± 0.81.
For the substance FINCSHQCHSIGIRVLLNCR, the amyloid nucleation score came out at 0.915 ± 0.19.
Take WLDSQWNLYLDLYHLYRSCR: the amyloid nucleation score was determined as 3.22 ± 0.12.
In the case of SDHMYMIFMTMFVVVSHWVI, the amyloid nucleation score was -0.795 ± 0.76.
With LNTIFTKIIGFSA the figure was -1.52 ± 0.49.
For SIILLDYCPRRNSSTIALRH, the amyloid nucleation score is -0.118 ± 0.43.
The substance GSYTHARINSVIFNRYTLCS came in with an amyloid nucleation score of 0.219 ± 1.
IESRVWVGWSDD came in with an amyloid nucleation score of -0.044 ± 0.49.
In turn, KSSEHRGCLICTIIAVDL came in with an amyloid nucleation score of 6.977 ± 0.039.
Take SDSSRFVDKGSYRYKRREWE: the amyloid nucleation score was -0.161 ± 0.65.
Consider LNSTGAQQFRTVEVYTSMQW, for which the amyloid nucleation score was 2.81 ± 0.11.
TLMGNVRTCPPAGRRATTAS had an amyloid nucleation score of 0.966 ± 0.22.
With VNIDGRDRDNFVNGRSIMLR, the amyloid nucleation score entry is “inactive”.
With VSEANVTYINFFC, the amyloid nucleation score came out at 4.36 ± 0.089.
As to LNLSYIKAVTSRFAADYVL, the amyloid nucleation score was found to be 0.523 ± 0.18.
Substance KWFNVCIWKCAWLYIDGVGC yielded an amyloid nucleation score of 3.95 ± 0.066.
The value for FAFIYVIT was “inactive”; that for TTFIRLVIITPWV was 2.75 ± 0.15; that for HCHWWEGWRVEVYCLFPVTT was 7.852 ± 0.064.
GPISVKRYL: the amyloid nucleation score came out at 1.64 ± 0.35.
In turn, VNVCWLKSATPNSCVDLVNI yielded an amyloid nucleation score of 0.946 ± 0.6.
For KSEKTHRIAMLNMSLVSYMR, the amyloid nucleation score is 3.97 ± 0.053.
GIESSPFCFSLPGSATKRKQ displayed an amyloid nucleation score of 0.485 ± 0.36.
The value for PGSMPRRMSRCWSIGLDGEE was 1.3 ± 0.32.
With IFLSSDLTDGVYSSLYDPID, the amyloid nucleation score was 0.042 ± 1.1.
The value for GSAFGGRRLFEGLRGGIREW was 0.665 ± 0.4; that for CILYKEACEIVIFPGFTVAN was -1.15 ± 1.
With RKPRFIACMTSPCLALC the figure was 0.066 ± 0.5; with TNDLIRKFTLYMNQCDFNWS, -0.633 ± 1.1.
On to DLSRTRGTEKASRSVWLRSM, for which the amyloid nucleation score turned out to be 3.97 ± 0.048.
For the substance FAMRTSKKVSRTTAGGTDPF, the amyloid nucleation score was -0.696 ± 0.54.
With WLVTAMSMLVCLPGYESLYW the figure was 1.98 ± 0.21; with IVDKVGHRVYEFVIYLTEDG, “inactive”; with TWSHTPNALWMDALRSTLQA, 1.05 ± 0.38.
ELVYHLSNLKG displayed an amyloid nucleation score of -0.381 ± 1.1.
Turning to SSVRR, the amyloid nucleation score stood at 0.723 ± 0.22.
Substance KDTRVVYVPSFYLWNLDAVK returned an amyloid nucleation score of -0.551 ± 0.61.
Regarding LSPRSGNRTP, the amyloid nucleation score was -0.436 ± 0.41.
In turn, RSVLWSSMVGV gave an amyloid nucleation score of 1.39 ± 0.44.
As for HNGIMFTCYLSP, the amyloid nucleation score is 5.944 ± 0.053.
Take LFDGARINTVNECVYWNS: the amyloid nucleation score result was “inactive”.
Substance ELHLFHATPRY returned an amyloid nucleation score of 6.61 ± 0.067.
SVNSC gave an amyloid nucleation score of -0.654 ± 1.
The substance VHRLC displayed an amyloid nucleation score of 1.38 ± 0.47.
The substance RLKVVLRYLASGHWKLVA came in with an amyloid nucleation score of 1.31 ± 0.41.
Regarding FMFLEKRVGNVGRYFHEYIG, the amyloid nucleation score entry was “inactive”.
For the substance NASPFSHKYHEWFEVEGSSI, the amyloid nucleation score came out at 0.108 ± 0.65.
Consider SKHFIVTVLTAITSNVSFSM, for which the amyloid nucleation score amounted to 2.38 ± 0.066.
The substance YYGRSSLRNRMDVSDVQYPG gave an amyloid nucleation score of -0.67 ± 1.1.
As to YNPNCPCICS, the amyloid nucleation score came to 6.823 ± 0.026.
Turning to AYHRWSTVLWILTYWTLRMC, the amyloid nucleation score stood at 0.053 ± 1.1.
DVIPRVMIKALT registered an amyloid nucleation score of 0.063 ± 0.56.
For NTCMLRARVSVMQNEE, the amyloid nucleation score stood at 0.071 ± 0.35.
WYCRVSMRNLYIFGSIRSAY had an amyloid nucleation score of 5.34 ± 0.086.
As to KTCRFLCA, the amyloid nucleation score turned out to be 0.176 ± 0.64.
Take ALMDCACFVYSRD: the amyloid nucleation score is -0.199 ± 1.1.
In turn, TNLCVPFVYEHFGCYGYN returned an amyloid nucleation score of 3.83 ± 0.12.
As to CSSTAVFTRLIKADIWVRSA, the amyloid nucleation score is -1.35 ± 0.36.
With MDGVMRTRFFLDSDVFYSSH the figure was 3.69 ± 0.046.
As for FIIDWSVKFGICSICLAT, the amyloid nucleation score was determined as 5.448 ± 0.042.
SSRSTCNINSYELSVSVQLR displayed an amyloid nucleation score of 5.35 ± 0.075.
The value for RFSDM was -0.126 ± 0.31; that for TGLTLVV was -0.094 ± 1; that for GWGRLTY was 0.21 ± 0.74.
As to SHGPLR, the amyloid nucleation score turned out to be 5.556 ± 0.053.
The substance YLGGMGSICDVNPCLYNRFL gave an amyloid nucleation score of 0.655 ± 0.16.
Regarding LHNDLLKVNSERENNNDLGS, the amyloid nucleation score came out at 0.089 ± 0.5.
The value for LILDILSRGSAYYDCTRMKG was “inactive”; that for GDSPNNSYWIADSW was 2.75 ± 0.15; that for YGPWSCLI was “inactive”.
ESKVAIA had an amyloid nucleation score of -0.247 ± 0.24.
As for CNRQAAMKAPSETCDVVACF, the amyloid nucleation score was 4.52 ± 0.083.
CCICKSRHLFDWKNDEWTSI had an amyloid nucleation score of -0.45 ± 0.63.
MANSTLRV had an amyloid nucleation score of 0.314 ± 0.39.
The value for NCFFITGGNGYNAVLLKYIC was 3.83 ± 0.04.
With KDFVG, the amyloid nucleation score is 2.62 ± 0.11.
GLYYASYNN registered an amyloid nucleation score of -1.63 ± 0.5.
As to YRPQATGLGSRGRR, the amyloid nucleation score was 0.81 ± 0.43.
Substance YNKLGCTARFTRAMWTFCGV showed an amyloid nucleation score of 0.066 ± 1.
Regarding VWMHMSGSIIKSWFLVRCFS, the amyloid nucleation score is -0.506 ± 0.38.
With HCGCMEQA the figure was 0.486 ± 0.8; with ICWPMGICLNNSDSVLLGEC, “inactive”; with RKPMLFLRYF, “inactive”.
With GKESTTKH the figure was -0.494 ± 0.56; with RITDYRCLTMNKGQSARNQG, “inactive”; with AYKSYGKASSDWMWGLCSHH, -0.108 ± 0.56.
With LSYLML the figure was -1.03 ± 0.78; with KVMIVNRVIYTNRFNQGLTM, 7.705 ± 0.051; with TSFGCWSQAYKMMRFDLCSV, -0.145 ± 0.21.
Substance LGHTH yielded an amyloid nucleation score of 1.06 ± 0.53.
For the substance YWTPYCIVIH, the amyloid nucleation score is -0.965 ± 0.78.
TKEIVEGINTQLYRWTLFG registered an amyloid nucleation score of -0.429 ± 0.25.
In the case of RAFCVGSTYSSSGGQSLMRV, the amyloid nucleation score entry was “inactive”.
As for RFDCLTVLLVFESYHFKTAG, the amyloid nucleation score was -0.392 ± 0.31.
FIMCSDYPYHITPYPWLGPG: the amyloid nucleation score was -0.59 ± 0.37.
The value for MDPVWVYADFWMF was -0.78 ± 1.1.
For KSRISMPPSVLLDYGLAHNA, the amyloid nucleation score was -0.598 ± 0.63.
